According to patent publication US20070092444A1, “Inhibition of inward sodium currents in cancer” (priority 2003, published 2007):

Molecular target: T1, ASIC1 (recombinant: in vitro translated in proteoliposomes, expressed in Xenopus oocytes, reconstituted in planar lipid bilayers) (UniProt P78348)
T1 sequence: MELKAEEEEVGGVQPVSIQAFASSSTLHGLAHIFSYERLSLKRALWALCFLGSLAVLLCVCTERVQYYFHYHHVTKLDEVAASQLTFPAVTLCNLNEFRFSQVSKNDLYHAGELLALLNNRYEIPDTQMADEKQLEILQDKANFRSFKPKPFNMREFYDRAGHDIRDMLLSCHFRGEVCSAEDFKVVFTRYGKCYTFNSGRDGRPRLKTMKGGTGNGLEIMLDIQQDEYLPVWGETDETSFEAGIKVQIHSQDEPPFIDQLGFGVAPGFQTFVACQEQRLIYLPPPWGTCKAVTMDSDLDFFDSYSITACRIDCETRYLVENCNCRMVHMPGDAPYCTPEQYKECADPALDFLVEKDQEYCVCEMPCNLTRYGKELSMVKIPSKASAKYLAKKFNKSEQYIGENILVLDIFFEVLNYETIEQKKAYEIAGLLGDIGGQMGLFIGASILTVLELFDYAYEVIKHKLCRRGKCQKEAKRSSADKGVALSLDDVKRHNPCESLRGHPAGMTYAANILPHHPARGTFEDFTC

Row | Substance | ASIC1 activity in planar lipid bilayers | in vitro phosphorylation of ASIC1 | ASIC1 activity in planar lipid bilayers (PKCβI and PKCβII added in combination)
1 | PKC holoenzyme | PKC holoenzyme or the combination of PKCβI and PKCβII isoforms inhibited ASIC1. | PKC holoenzyme, PKCβI, PKCβII, PKCδ, PKCε, and PKCζ phosphorylated ASIC1 in vitro. | 
2 | PKCβI |  | PKC holoenzyme, PKCβI, PKCβII, PKCδ, PKCε, and PKCζ phosphorylated ASIC1 in vitro. | PKC holoenzyme or the combination of PKCβI and PKCβII isoforms inhibited ASIC1.
3 | PKCβII |  | PKC holoenzyme, PKCβI, PKCβII, PKCδ, PKCε, and PKCζ phosphorylated ASIC1 in vitro. | PKC holoenzyme or the combination of PKCβI and PKCβII isoforms inhibited ASIC1.
4 | PKCδ |  | PKC holoenzyme, PKCβI, PKCβII, PKCδ, PKCε, and PKCζ phosphorylated ASIC1 in vitro. | 
5 | PKCε | Neither PKCε, PKCζ, nor their combination had any effect on ASIC1 activity in bilayers. | PKC holoenzyme, PKCβI, PKCβII, PKCδ, PKCε, and PKCζ phosphorylated ASIC1 in vitro. | 
